Earlier results in paper PMC9826382.

Molecular target: HOP TPR2A (Homo sapiens) (UniProt P31948)
Experiment: SPR

Chain of UniProt P31948 (P31948 223-352): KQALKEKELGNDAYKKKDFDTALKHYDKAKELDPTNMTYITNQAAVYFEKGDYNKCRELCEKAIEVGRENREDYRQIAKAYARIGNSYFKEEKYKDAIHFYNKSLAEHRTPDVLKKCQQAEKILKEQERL

Substance: HSP90 C-terminal peptide
- Kd: 11 µM
